Assay results from the RNAGym collection of RNA variant scans (doi:10.1021/acssynbio.7b00057).

B1: Pistol ribozyme (parent)
chain: GGGUCGUUGUUCCAUAAUCGCGUGGAUAUGGCACGCAAGUUUCUACCGGGCACCGUAAAUGUCCGACUGGAGCCGUUCGGGCGGCUAUAAACAGACCUCAGGCCCGAAGCGUGGCGGCACCUGCCGCCGGUGGUAAAAAAGAUCGGAAGAGCACACGUCU

Variants of: B1
Experiment: aptazyme ON/OFF ratio, guanine; higher = stronger switching; co-transcriptional cleavage with and without guanine

Row | Variant | aptazyme ON/OFF ratio
1 | U7A U8C G9U U10A U11A C12A C13G | 1.22
2 | U7A U8C G9U U10A U11A C12A C13U | 1.22
3 | U7A U8C G9U U10A U11A C12A C13A | 1.17
4 | U7A U8C G9C U10G C12U C13A | 1.06
5 | U7A U8C G9C U10G C12U C13G | 1.11
6 | U7A U8C G9C U10G C12U C13U | 1.26
7 | U7A U8C G9U U10A C13G | 1.08
8 | U7A U8C G9U U10A C13A | 1.18
9 | U7A U8C G9U U10A C13U | 1.15
10 | U7A U8C G9U U10C U11G C13G | 1.31
11 | U7A U8C G9U U10C U11G C13A | 1.17
12 | U7A U8C G9U U10C U11G C13U | 1.25
13 | U7A U8C G9C U10C U11C C12U C13G | 1.02
14 | U7A U8C G9C U10C U11C C12U C13U | 0.988
15 | U7A U8C G9C U10C U11C C12U C13A | 1.02
16 | U7A U8C G9C U10G U11G C12A C13A | 1.15
17 | U7A U8C G9C U10G U11G C12A C13U | 1.08
18 | U7A U8C G9C U10G U11G C12A C13G | 1.07
19 | U7A U8C G9C U10G U11A C12A C13A | 1.03
20 | U7A U8C G9C U10G U11A C12A C13G | 1.16
21 | U7A U8C G9C U10G U11A C12A C13U | 1.06

Row | Variant | aptazyme ON/OFF ratio
22 | U7A U8C G9U U10C U11G C12G C13U | 1.06
23 | U7A U8C G9U U10C U11G C12G C13A | 1.17
24 | U7A U8C G9U U10C U11G C12G C13G | 1.11
25 | U7A U8C G9C U11G C12G C13G | 1.12
26 | U7A U8C G9C U11G C12G C13A | 1.12
27 | U7A U8C G9C U11G C12G C13U | 1.11
28 | U7A U8C G9U U10C C12A C13U | 1.26
29 | U7A U8C G9U U10C C12A C13A | 1.14
30 | U7A U8C G9U U10C C12A C13G | 1.29
31 | U7A U8C G9C U10A U11G C12G | 1.12
32 | U7A U8C G9C U10A U11G C12U | 1.19
33 | U7A U8C G9C U11A C12A C13G | 1.08
34 | U7A U8C G9C U11A C12A C13A | 1.07
35 | U7A U8C G9C U11A C12A C13U | 1.05
36 | U7A U8C G9U U10A U11C C12U | 1.04
37 | U7A U8C G9U U10A U11C C12A | 1.2
38 | U7A U8C G9U U10A U11C C12G | 1.27
39 | U7A U8C G9C U10A U11G C12U C13A | 1.13
40 | U7A U8C G9C U10A U11G C12U C13G | 1.14
41 | U7A U8C G9C U10A U11G C12U C13U | 1.14
42 | U7A U8C G9C U11A | 1.11

Row | Variant | aptazyme ON/OFF ratio
43 | U7A U8C G9C U11G | 1.09
44 | U7A U8C G9C U11C | 1
45 | U7A U8C G9C U10G U11A C12G C13A | 1.02
46 | U7A U8C G9C U10G U11A C12G C13U | 1.08
47 | U7A U8C G9C U10G U11A C12G C13G | 1.17
48 | U7A U8C G9U U10A C12G C13A | 1.11
49 | U7A U8C G9U U10A C12G C13U | 1.32
50 | U7A U8C G9U U10A C12G C13G | 1.22
51 | U7A U8C G9C U10C U11C C12G C13U | 1.07
52 | U7A U8C G9C U10C U11C C12G C13A | 1.02
53 | U7A U8C G9C U10C U11C C12G C13G | 1.09
54 | U7A U8C G9U U10A U11C C12G C13A | 1.23
55 | U7A U8C G9U U10A U11C C12G C13U | 1.18
56 | U7A U8C G9U U10A U11C C12G C13G | 1.08
57 | U7A U8C G9C U11A C12A | 1.08
58 | U7A U8C G9C U11A C12G | 1.09
59 | U7A U8C G9C U11A C12U | 1.05
60 | U7A U8C G9U | 1.94
61 | U7A U8C G9C U10G C12G C13A | 1.05
62 | U7A U8C G9C U10G C12G C13G | 1.11
63 | U7A U8C G9C U10G C12G C13U | 1.13

Row | Variant | aptazyme ON/OFF ratio
64 | U7A U8C G9C U10A U11G C12G C13G | 1.13
65 | U7A U8C G9C U10A U11G C12G C13A | 1.08
66 | U7A U8C G9C U10A U11G C12G C13U | 1.14
67 | U7A U8C G9C U10C U11G C13G | 1.16
68 | U7A U8C G9C U10C U11G C13A | 1.07
69 | U7A U8C G9C U10C U11G C13U | 1.04
70 | U7A U8C G9C U10C U11G | 1.03
71 | U7A U8C G9C U10C U11A | 1.03
72 | U7A U8C G9C U10C U11C | 0.989
73 | U7A U8C G9U U10C U11A C13G | 1.09
74 | U7A U8C G9U U10C U11A C13U | 1.12
75 | U7A U8C G9U U10C U11A C13A | 1.1
76 | U7A U8C G9U U10A U11C C13G | 1.1
77 | U7A U8C G9U U10A U11C C13A | 1.08
78 | U7A U8C G9U U10A U11C C13U | 1.06
79 | U7A U8C G9C U11G C13G | 1.13
80 | U7A U8C G9C U11G C13U | 1.1
81 | U7A U8C G9C U11G C13A | 1.05
82 | U7A U8C G9C U10G C12U | 1.02
83 | U7A U8C G9C U10G C12A | 1.07
84 | U7A U8C G9C U10G C12G | 1.12
